Measurements as given in patent US20230257470A1 (published 2023).

T1: human FcγRIIa(R) (human, UniProt P12318 36-217)
T1 construct: also called FcgRIIaR; FcγRIIa type R
T1 chain: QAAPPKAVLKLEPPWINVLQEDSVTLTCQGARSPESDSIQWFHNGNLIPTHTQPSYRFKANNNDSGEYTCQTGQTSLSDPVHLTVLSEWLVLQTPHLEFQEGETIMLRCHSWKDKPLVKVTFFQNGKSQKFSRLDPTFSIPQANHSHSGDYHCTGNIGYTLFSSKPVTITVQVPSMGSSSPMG

T2: human FcγRIIb (human, UniProt P31994 43-217, limits assumed)
T2 construct: also called FcgRIIb; FcγIIB
T2 sequence: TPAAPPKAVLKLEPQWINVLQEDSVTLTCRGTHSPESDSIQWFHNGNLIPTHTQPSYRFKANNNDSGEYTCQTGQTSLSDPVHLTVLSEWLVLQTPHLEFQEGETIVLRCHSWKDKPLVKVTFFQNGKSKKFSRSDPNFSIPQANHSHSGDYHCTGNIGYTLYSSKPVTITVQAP

T3: human FcγRIIa(H) (human, UniProt P12318 36-217)
T3 construct: also called FcgRIIaH; FcγRIIa type H
T3 sequence: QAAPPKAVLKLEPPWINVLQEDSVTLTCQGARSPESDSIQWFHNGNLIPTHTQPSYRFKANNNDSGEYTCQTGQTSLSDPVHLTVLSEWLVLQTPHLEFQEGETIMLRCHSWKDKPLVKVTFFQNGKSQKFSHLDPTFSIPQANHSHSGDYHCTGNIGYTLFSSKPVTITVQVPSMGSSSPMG


Tests used:
Assay in all cases: SPR (Biacore), antibody captured, FcγR as analyte; amount bound / that of GpH7-B3/GpL16-k0 x 100;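 further: FcγR binding response divided by the captured antibody amount before comparison, measured at 25 °C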
human FcγRIIa(R) = biological target: T1, human FcγRIIa(R)
Description: (§1) Interaction between each modified antibody and Fcγ receptor prepared in the manner described above was analyzed using the BIACORE™ T100 surface plasmon resonance system (GE Healthcare), BIACORE™ T200 surface plasmon resonance system (GE Healthcare), BIACORE™ A100 surface plasmon resonance system or BIACORE™ 4000 surface plasmon resonance system. HBS-EP+(GE Healthcare) was used for the running buffer, and measurements were carried out at 25° C. The chips used were chips in which antigen peptides, Protein A (Thermo Scientific), Protein A/G (Thermo Scientific) or Protein L (ACTIGEN® protein (Alltech or BioVision) were immobilized on the Series S Sensor Chip CM5 (GE Healthcare) or Series S Sensor Chip CM4 (GE Healthcare) by amine coupling, or chips in which preliminarily biotinylated antigen peptides were allowed to interact and then immobilized on the Series S Sensor Chip SA (certified) (GE Healthcare). The target antibodies were captured on these sensor chips, Fcγ receptor diluted with the running buffer was allowed to interact, followed by measurement of the amount of bound antibody. The amounts bound were compared between antibodies. However, since the amount of Fcγ receptor bound depends on the amount of captured antibody, the values used for comparison were first corrected by dividing the amount of Fcγ receptor bound by the captured amount of each antibody. Through reaction with 10 mM glycine-HCl at pH 1.5, the sensor chips were regenerated by washing off antibody captured on the sensor chips and used repeatedly.
(§2) Binding strength was evaluated according to the following method based on the results of analyzing the interaction with each FcγR. […] That value was then further multiplied by 100, and the resulting value was used as an indicator of relative binding activity to each FcγR.

human FcγRIa = biological target: T4, human FcγRIa (human, UniProt P12314 16-292, limits assumed)
T4 construct: also called FcgRIa; CD64
Description: as §1, §2

human FcγRIIIa(F) = biological target: T5, human FcγRIIIa(F) (human, UniProt P08637 17-208, limits assumed)
T5 construct: also called FcgRIIIaF; FcγRIIIa allotype F158
Description: as §1, §2

human FcγRIIb = biological target: T2, human FcγRIIb
Description: as §1, §2

human FcγRIIa(H) = biological target: T3, human FcγRIIa(H)
Description: as §1, §2

T5 sequence (P08637 other isoform, or with tags, fused parts or gaps limits assumed): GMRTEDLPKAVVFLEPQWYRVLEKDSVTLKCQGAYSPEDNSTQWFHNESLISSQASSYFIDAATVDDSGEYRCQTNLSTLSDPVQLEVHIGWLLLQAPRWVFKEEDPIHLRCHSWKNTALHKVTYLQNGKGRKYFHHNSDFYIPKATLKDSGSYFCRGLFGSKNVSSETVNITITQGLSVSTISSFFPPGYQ
T4 sequence (P12314 16-292 limits assumed): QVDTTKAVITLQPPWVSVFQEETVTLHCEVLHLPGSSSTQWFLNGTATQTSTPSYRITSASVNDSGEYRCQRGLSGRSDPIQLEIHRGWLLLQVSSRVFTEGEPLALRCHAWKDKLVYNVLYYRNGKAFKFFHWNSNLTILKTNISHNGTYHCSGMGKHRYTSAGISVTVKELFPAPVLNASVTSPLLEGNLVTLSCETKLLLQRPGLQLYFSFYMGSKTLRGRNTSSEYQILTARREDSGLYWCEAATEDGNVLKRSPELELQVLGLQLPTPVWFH

relative binding activity (human FcγRIIa(R)) [GpH7-B3/GpL16-k0 = 100]	relative binding activity (human FcγRIa) [GpH7-B3/GpL16-k0 = 100]	relative binding activity (human FcγRIIIa(F)) [GpH7-B3/GpL16-k0 = 100]	relative binding activity (human FcγRIIb) [GpH7-B3/GpL16-k0 = 100]	relative binding activity (human FcγRIIa(H)) [GpH7-B3/GpL16-k0 = 100]	Binder
1	84	19	3	37	GpH7-B3/GpL16-k0 variant D270V (antibody, human IgG1, also called B3 variant; copies: 2 + 2) heavy: not shown light: DIVMTQSPLSLPVTPGEPASISCQASESLVHSNRNTYLHWYLQKPGQSPQLLIYKVSNRFSGVPDRFSGSGSGTDFTLKISRVEAEDVGVYYCSQNTHVPPTFGQGTKVEIE
-2	74	7	-2	38	GpH7-B3/GpL16-k0 variant D270W (antibody, human IgG1, also called B3 variant; copies: 2 + 2) heavy: not shown light: DIVMTQSPLSLPVTPGEPASISCQASESLVHSNRNTYLHWYLQKPGQSPQLLIYKVSNRFSGVPDRFSGSGSGTDFTLKISRVEAEDVGVYYCSQNTHVPPTFGQGTKVEIE
3	87	23	5	66	GpH7-B3/GpL16-k0 variant D270A (antibody, human IgG1, also called B3 variant; copies: 2 + 2) heavy: not shown light: DIVMTQSPLSLPVTPGEPASISCQASESLVHSNRNTYLHWYLQKPGQSPQLLIYKVSNRFSGVPDRFSGSGSGTDFTLKISRVEAEDVGVYYCSQNTHVPPTFGQGTKVEIE
2	82	49	0	78	GpH7-B3/GpL16-k0 variant D270Q (antibody, human IgG1, also called B3 variant; copies: 2 + 2) heavy: not shown light: DIVMTQSPLSLPVTPGEPASISCQASESLVHSNRNTYLHWYLQKPGQSPQLLIYKVSNRFSGVPDRFSGSGSGTDFTLKISRVEAEDVGVYYCSQNTHVPPTFGQGTKVEIE
10	45	–	7	8	GpH7-B3/GpL16-k0 variant Y296P (antibody, human IgG1, also called B3 variant; copies: 2 + 2) heavy: not shown light: DIVMTQSPLSLPVTPGEPASISCQASESLVHSNRNTYLHWYLQKPGQSPQLLIYKVSNRFSGVPDRFSGSGSGTDFTLKISRVEAEDVGVYYCSQNTHVPPTFGQGTKVEIE
-4	45	5	-5	16	GpH7-B3/GpL16-k0 variant D270K (antibody, human IgG1, also called B3 variant; copies: 2 + 2) heavy: not shown light: DIVMTQSPLSLPVTPGEPASISCQASESLVHSNRNTYLHWYLQKPGQSPQLLIYKVSNRFSGVPDRFSGSGSGTDFTLKISRVEAEDVGVYYCSQNTHVPPTFGQGTKVEIE
49	99	39	38	55	GpH7-B3/GpL16-k0 variant P271F (antibody, human IgG1, also called B3 variant; copies: 2 + 2) heavy: not shown light: DIVMTQSPLSLPVTPGEPASISCQASESLVHSNRNTYLHWYLQKPGQSPQLLIYKVSNRFSGVPDRFSGSGSGTDFTLKISRVEAEDVGVYYCSQNTHVPPTFGQGTKVEIE
5	88	12	5	62	GpH7-B3/GpL16-k0 variant D270F (antibody, human IgG1, also called B3 variant; copies: 2 + 2) heavy: not shown light: DIVMTQSPLSLPVTPGEPASISCQASESLVHSNRNTYLHWYLQKPGQSPQLLIYKVSNRFSGVPDRFSGSGSGTDFTLKISRVEAEDVGVYYCSQNTHVPPTFGQGTKVEIE
0	73	17	-1	49	GpH7-B3/GpL16-k0 variant D270S (antibody, human IgG1, also called B3 variant; copies: 2 + 2) heavy: not shown light: DIVMTQSPLSLPVTPGEPASISCQASESLVHSNRNTYLHWYLQKPGQSPQLLIYKVSNRFSGVPDRFSGSGSGTDFTLKISRVEAEDVGVYYCSQNTHVPPTFGQGTKVEIE
3	82	6	3	29	GpH7-B3/GpL16-k0 variant D270G (antibody, human IgG1, also called B3 variant; copies: 2 + 2) heavy: not shown light: DIVMTQSPLSLPVTPGEPASISCQASESLVHSNRNTYLHWYLQKPGQSPQLLIYKVSNRFSGVPDRFSGSGSGTDFTLKISRVEAEDVGVYYCSQNTHVPPTFGQGTKVEIE
